Entries after “also recorded” stand apart in the source; their conditions may differ. Blank lines part the entries; values can stand above or below the molecule they belong to.
Assays:
[1] = test system: colon cancer cells (SW620, HCT116); details: general description of other anti-EpCAM antibodies; cited from earlier work
EpCAM = molecular target: T1, EpCAM (Homo sapiens, UniProt P16422); experiment: Antibody binding to EpCAM wild-type, deletion and point mutants in HEK293T cells (immunofluorescence, flow cytometry, cellular ELISA); details: EGF-like domain deletion and point mutants
T1 construct: HEK293T cells were transfected with full length or EGF like-domain deletion mutant EpCAM-V5; V5; expressed in transfected cells; host or cells: HEK293T
T1 sequence (P16422 24-314): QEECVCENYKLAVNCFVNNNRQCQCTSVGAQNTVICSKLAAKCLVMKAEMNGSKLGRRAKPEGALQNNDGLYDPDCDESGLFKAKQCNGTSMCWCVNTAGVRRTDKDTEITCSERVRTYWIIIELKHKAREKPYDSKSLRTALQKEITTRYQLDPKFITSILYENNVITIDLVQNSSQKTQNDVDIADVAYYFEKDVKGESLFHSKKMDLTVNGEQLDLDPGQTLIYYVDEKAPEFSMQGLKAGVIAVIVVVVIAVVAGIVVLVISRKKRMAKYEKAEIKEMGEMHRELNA
Experimental: FIGS. 18A to 18G. […] HEK293T cells were transfected with full length or EGF like-domain deletion mutant EpCAM-V5. Antibody binding was assessed by (FIG. 8A) Western blotting, (FIG. 8B) flow cytometry, and (FIG. 8C) immunofluorescence. (FIG. 8D) EpCAM mutants were constructed with amino acid substitutions in the EGF-I (Y32A) and EGF-II (L94A, Y95A, or D96A) domains. EpCAM wild-type and mutant proteins were expressed in HEK293T cells. Binding of MT201, EpAb2-6 and EpAb23-1 to EpCAM wild-type and mutants were evaluated by (FIG. 8E) immunofluorescence, (FIG. 8F) flow cytometry, and (FIG. 8G) cellular ELISA. All data are presented as mean±SEM. *, p<0.05; **, p<0.01.
Here, we wanted to determine whether the antibody binds to EpCAM at both EGF-like domains of EpEX (FIG. 18A, FIG. 18B, FIG. 18C). To confirm that EpAb2-6 recognizes the LYD motif in EpCAM, we constructed cDNA sequences encoding the first (aa 27-59; EGF-I domain) and second (aa 66-135; EGF-II/TY domain) EGF-like repeats of EpCAM. PCR-based site-directed mutagenesis was then used to introduce mutations into each domain (FIG. 18D). The reactivity of EpAb2-6 antibody toward these EpCAM mutants was evaluated by immunofluorescence (FIG. 18E), flow cytometry (FIG. 18F), and cellular ELISA (FIG. 18G).

Axin2 = experiment: Wnt-target Axin2 expression (western blot, qPCR); assay type: cell-based, human; details: HT29 and HCT116 cells; EpEX, Wnt3A or combination; protein and mRNA
Experimental: For western blotting, cells were extracted using radioimmunoprecipitation assay (RIPA) buffer [(0.01 M sodium phosphate, pH 7.2), 150 mM NaCl, 2 mM EDTA, 50 mM NaF, 1% Nonidet P-40, 1% sodium deoxycholate, and 0.1% SDS)] containing phosphatase inhibitor (Roche) and protease inhibitor (Roche) cocktail. Equal amounts of protein were separated by SDS-PAGE and then transferred to PVDF membranes. The membranes were blocked with 3% BSA in TBST (Blocking solution) and incubated with necessary primary antibodies in the blocking solution overnight at 4° C. Membranes were then incubated with HRP-conjugated secondary antibodies in the blocking solution for 1 h at room temperature, and protein expression were detected. […]
Total RNA was extracted using TRI reagent and 5 μg of the total RNA was further reverse-transcribed using oligo (dT) primer with reverse transcriptase. Quantitative real time RT-PCR (qPCR) was performed on cDNA using the Light Cycler 480 SYBR Green-I Master kit and the LightCycler480 System. […]

recombinant LRP6 = molecular target: T2, recombinant LRP6 (Homo sapiens, UniProt O75581); experiment: ELISA of EpEX binding to Wnt receptor-coated plates (LRP6); details: EpEX-His alone, 2 hours; optical density at 450 nm
T2 construct: purchased Proteintech
T2 sequence (O75581 20-1613): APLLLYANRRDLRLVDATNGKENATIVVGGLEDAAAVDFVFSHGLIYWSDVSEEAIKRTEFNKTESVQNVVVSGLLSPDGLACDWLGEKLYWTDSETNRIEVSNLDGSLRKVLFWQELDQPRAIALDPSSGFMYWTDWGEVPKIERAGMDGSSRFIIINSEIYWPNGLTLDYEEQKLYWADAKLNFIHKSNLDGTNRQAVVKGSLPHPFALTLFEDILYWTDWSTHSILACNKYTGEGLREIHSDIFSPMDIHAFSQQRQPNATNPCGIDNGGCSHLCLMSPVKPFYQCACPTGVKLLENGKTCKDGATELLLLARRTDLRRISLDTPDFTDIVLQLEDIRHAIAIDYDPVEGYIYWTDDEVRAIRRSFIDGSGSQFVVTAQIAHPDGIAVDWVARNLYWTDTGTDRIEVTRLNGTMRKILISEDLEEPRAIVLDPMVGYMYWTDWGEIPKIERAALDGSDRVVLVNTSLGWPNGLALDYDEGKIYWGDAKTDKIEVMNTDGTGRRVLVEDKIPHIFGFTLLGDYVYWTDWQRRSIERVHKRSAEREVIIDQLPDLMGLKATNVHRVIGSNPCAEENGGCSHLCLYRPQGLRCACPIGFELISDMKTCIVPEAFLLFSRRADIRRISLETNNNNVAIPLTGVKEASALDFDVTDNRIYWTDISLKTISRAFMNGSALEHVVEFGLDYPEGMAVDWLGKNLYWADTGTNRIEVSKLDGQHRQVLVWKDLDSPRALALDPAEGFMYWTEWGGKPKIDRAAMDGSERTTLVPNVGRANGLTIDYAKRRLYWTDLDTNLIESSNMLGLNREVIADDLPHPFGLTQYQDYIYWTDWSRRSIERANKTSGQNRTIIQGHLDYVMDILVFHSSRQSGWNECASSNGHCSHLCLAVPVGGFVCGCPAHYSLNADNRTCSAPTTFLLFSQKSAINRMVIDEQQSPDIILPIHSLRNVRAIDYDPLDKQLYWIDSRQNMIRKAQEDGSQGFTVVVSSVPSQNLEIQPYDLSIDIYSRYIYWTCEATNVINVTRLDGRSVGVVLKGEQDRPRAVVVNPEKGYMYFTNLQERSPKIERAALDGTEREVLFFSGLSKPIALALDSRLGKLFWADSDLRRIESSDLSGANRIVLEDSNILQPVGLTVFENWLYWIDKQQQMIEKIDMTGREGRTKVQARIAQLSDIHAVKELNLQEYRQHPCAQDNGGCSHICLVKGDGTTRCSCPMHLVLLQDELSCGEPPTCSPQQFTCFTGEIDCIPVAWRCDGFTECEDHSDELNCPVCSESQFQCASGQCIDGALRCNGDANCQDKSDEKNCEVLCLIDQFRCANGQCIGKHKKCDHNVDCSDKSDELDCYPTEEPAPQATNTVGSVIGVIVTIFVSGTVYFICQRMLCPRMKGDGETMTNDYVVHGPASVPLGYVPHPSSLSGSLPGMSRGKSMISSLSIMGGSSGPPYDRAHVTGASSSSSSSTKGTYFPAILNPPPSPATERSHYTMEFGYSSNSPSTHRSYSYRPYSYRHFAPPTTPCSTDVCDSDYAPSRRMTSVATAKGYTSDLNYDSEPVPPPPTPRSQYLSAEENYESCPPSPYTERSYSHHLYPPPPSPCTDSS
Experimental: (§1) For ELISA, wells (at least 6 wells per single protein) were coated with recombinant FZD6 (Proteintech), recombinant FZD7 (Proteintech), recombinant LRP5 (Proteintech), recombinant LRP6 (Proteintech) overnight at 4° C. The wells were then blocked with 1% BSA and treated with EpEX-his (Produced in house by Expi293 Expression System) for 2 hours. Otherwise, EpEX-His was incubated with EpAb2-6 overnight and the complex was used to treat the protein-coated plates for 2 hours. Further anti-His antibody (abeam) was used and TMB was performed to record optical density at 450 nm.

recombinant FZD6 = molecular target: T3, recombinant FZD6 (Homo sapiens, UniProt O60353); experiment: ELISA of EpEX binding to Wnt receptor-coated plates (FZD6); details: EpEX-His alone, 2 hours; optical density at 450 nm
T3 construct: purchased Proteintech
T3 sequence (O60353 19-706): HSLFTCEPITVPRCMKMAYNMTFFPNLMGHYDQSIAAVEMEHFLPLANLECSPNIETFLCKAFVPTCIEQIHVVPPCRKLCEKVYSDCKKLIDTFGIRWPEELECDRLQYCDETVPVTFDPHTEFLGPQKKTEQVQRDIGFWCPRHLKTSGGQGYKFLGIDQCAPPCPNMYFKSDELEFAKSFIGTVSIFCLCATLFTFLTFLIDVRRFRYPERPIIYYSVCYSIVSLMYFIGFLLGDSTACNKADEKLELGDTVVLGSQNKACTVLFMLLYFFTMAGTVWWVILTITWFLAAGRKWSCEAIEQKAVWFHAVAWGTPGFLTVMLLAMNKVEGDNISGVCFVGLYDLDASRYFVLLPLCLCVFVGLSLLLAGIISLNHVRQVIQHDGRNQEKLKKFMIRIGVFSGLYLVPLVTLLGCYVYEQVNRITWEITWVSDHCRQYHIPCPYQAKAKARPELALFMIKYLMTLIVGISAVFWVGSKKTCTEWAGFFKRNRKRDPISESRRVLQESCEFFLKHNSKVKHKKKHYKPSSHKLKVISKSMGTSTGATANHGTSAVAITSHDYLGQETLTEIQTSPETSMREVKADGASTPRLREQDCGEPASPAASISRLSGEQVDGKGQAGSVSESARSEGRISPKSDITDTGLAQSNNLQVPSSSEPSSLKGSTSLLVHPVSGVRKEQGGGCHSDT
Experimental: as §1

Molecule: MT201: adecatumumab, a human anti-EpCAM antibody that was subjected to clinical trials [reference compound]
- inducing apoptosis of cancer cells [1]: failing

B1: EpAb2-6: anti-EpCAM (EpEX) neutralizing monoclonal antibody produced in mice by hybridoma; VH SEQ ID NO: 15, VL SEQ ID NO: 16 (antibody, V domains shown)
VH: VKLQESGPELKKPGETVKISCKASGYTFTDYSMHWVKQAPGKGLKWMGWINTETGEPTYADDFKGRFAFSLETSASTAYLQINNLKNEDTATYFCARTAVYWGQGTTVTVSS
VL: DIQMTQSPSSLSASLGERVSLTCRASQEISVSLSWLQQEPDGTIKRLIYATSTLDSGVPKRFSGSRSGSDYSLTISSLESEDFVDYYCLQYASYPWTFGGGTKLEIK
- EpCAM domains bound (EpCAM): binds to the EGF-I and EGF-II domains of EpEX; also recorded: binds to both EGF-like domain I and II of EpCAM

- EpEX binding to LRP6 (recombinant LRP6): bind with all receptor proteins
- EpEX binding to FZD6 (recombinant FZD6): bind with all receptor proteins
B2: EpEX: extracellular domain of EpCAM, produced in house by Expi293 Expression System (protein)
chain: T1 sequence (P16422 24-314)
- Axin2 expression (Axin2): increased Axin2 expression

B3: Wnt3A: recombinant Wnt3A (R & D systems) (protein, UniProt P56704 19-352, looked up)
Protein Wnt-3a: SYPIWWSLAVGPQYSSLGSQPILCASIPGLVPKQLRFCRNYVEIMPSVAEGIKIGIQECQHQFRGRRWNCTTVHDSLAIFGPVLDKATRESAFVHAIASAGVAFAVTRSCAEGTAAICGCSSRHQGSPGKGWKWGGCSEDIEFGGMVSREFADARENRPDARSAMNRHNNEAGRQAIASHMHLKCKCHGLSGSCEVKTCWWSQPDFRAIGDFLKDKYDSASEMVVEKHRESRGWVETLRPRYTYFKVPTERDLVYYEASPNFCEPNPETGSFGTRDRTCNVSSHGIDGCDLLCCGRGHNARAERRREKCRCVFHWCCYVSCQECTRVYDVHTCK
- Axin2 expression (Axin2): increased Axin2 expression

From US20250129146A1, “COMBINED CANCER THERAPY WITH AN EPITHELIAL CELL ADHESION MOLECULE (EPCAM) INHIBITOR AND A WNT INHIBITOR” (ACADEMIA SINICA, priority 2021, published 2025)
